From patent publication US12486514B2, “Method to specifically stimulate survival and expansion of genetically-modified immune cells” (National University of Singapore, priority 2018, dated 2025)

What was measured:
CD19+ Nalm6 ALL cells = test: Xenograft: Nalm6-luciferase cells followed 2 days later by EpoRm-CAR T cells, with or without Epo; format: in vivo, NSG mice; conditions: 100 IU Epo i.p. 3 times a week for 2 weeks
Method: In another model to test anti-leukemic activity of T cells, Nalm6 cells transduced with luciferase were injected i.v. (5×10^5 cells per mouse), followed 2 days later by T cells expressing EpoRm-CAR (2×10^7 cells per mouse, i.v.), while control mice received no T cells; some mice received Epo (100 IU) 3 times per week i.p. Tumor cell load was determined with the Xenogen IVIS-200 System (Perkin Elmer, Waltham, MA) after injecting aqueous D-luciferin potassium salt (150 μg/g body weight; Perkin Elmer) i.p. Luminescence was analyzed with Living Image 3.0 software. Mice were euthanized when the luminescence reached 1×10^10 photons per second, or earlier if there were physical signs warranting euthanasia.

STAT5 Y647 = test: Epo signaling: STAT5 phosphorylation by flow cytometry in transduced T cells; format: cell-based, human; conditions: for Epo signaling (pSTAT5) after JAK inhibitor: concentration that abrogated IL-2 signal
Method: To detect Epo signaling, cells were incubated in cytokine-free media for 2 hours before stimulated with Epo (0.01-10 IU/mL) at 37° C. for 15 minutes to 24 hours. In some experiments, cells were treated with 0.1-10 μM of ruxolitinib (Selleckchem) or 0.5-5 nM tofacitinib (Santa Cruz Biotechnology, Santa Cruz, CA) for 1 hour prior to Epo stimulation. […] In some experiments, the effects of human Epo were compared to those of murine Epo (Biolegend, San Diego, CA).

T lymphocytes [1] = test: Cell cycle analysis (EdU DNA synthesis) after Epo stimulation; format: cell-based, human; conditions: exposure to Epo for 24 hours
Method: To determine the effect of Epo on cell cycle, cells were cultured in cytokine-free media for 3 days followed by stimulation with 10 IU/mL of Epo for 1 day. DNA synthesis was measured by Click-iT EdU AF647 Flow Cytometry Assay Kit (Thermo Fisher Scientific), and DNA content was measured with FxCycle Violet Stain (Thermo Fisher Scientific).

T lymphocytes [2] = test: T cell survival/recovery in culture with or without Epo and IL-2; format: cell-based, human
Method: To assess cell survival, T cells were cultured in absence of exogenous cytokines, with or without Epo (4-10 IU/mL) in a flat bottom 96-well or 24-well plate (Cellstar). For cell proliferation, T cells were co-cultured with target cells (OP-1 cells) at 1:1 effector-to-target (E:T) ratio in a flat bottom 96-well plate; Epo (10 IU/mL) was added every two days. Target cells, irradiated (100 Gy) or treated with Streck cell preservative (Streck Laboratories, Omaha, NE) to inhibit growth, were added at the beginning of the cultures, and every 7 days thereafter. In some experiments, low dose (10 IU/mL) or high dose (100 IU/mL) IL-2 was added to the culture as well. The number of GFP+ T cells was measured by flow cytometry.

Jurkat cells = test: Jurkat cell growth curves; format: cell-based, human
Epo = test: Binding of biotinylated Epo to transduced Jurkat cells
Source text: Biotinylated Epo was visualized with streptavidin-PE (Jackson ImmunoResearch).

[3] = EpoRm-CAR T cells, Epo 10 IU/mL

Epo: recombinant human Epo (Thermo Fisher Scientific), glycoprotein cytokine
effect of Epo injection on anti-leukemic activity (CD19+ Nalm6 ALL cells): did not affect the anti-leukemic activity
pSTAT5 levels induced (STAT5 Y647; EpoRm-CAR T cells, 1 IU/mL of Epo vs 50 IU/mL IL-2): significantly higher

C[C@@H]1CCN(C(=O)CC#N)C[C@@H]1N(C)c1ncnc2[nH]ccc12 [tofacitinib, reference compound]
Epo signaling (pSTAT5) after JAK inhibitor (STAT5 Y647; [3]): no effect
STAT5 Y647 phosphorylation caused by IL-2 after JAK inhibitor (STAT5 Y647; EpoRm-CAR T cells, IL-2 100 IU/mL): completely abrogated

N#CC[C@H](C1CCCC1)n1cc(-c2ncnc3[nH]ccc23)cn1 [ruxolitinib, reference compound]
Epo signaling (pSTAT5) after JAK inhibitor (STAT5 Y647; [3]): no effect

B1: EpoRm: truncated mutant Epo receptor, codon 439 TGG (Trp) changed to TAG (stop), SEQ ID NO: 6, expressed in T cells (protein)
chain: MDHLGASLWPQVGSLCLLLAGAAWAPPPNLPDPKFESKAALLAARGPEELLCFTERLEDLVCFWEEAASAGVGPGNYSFSYQLEDEPWKLCRLHQAPTARGAVRFWCSLPTADTSSFVPLELRVTAASGAPRYHRVIHINEVVLLDAPVGLVARLADESGHVVLRWLPPPETPMTSHIRYEVDVSAGNGAGSVQRVEILEGRTECVLSNLRGRTRYTFAVRARMAEPSFGGFWSAWSEPVSLLTPSDLDPLILTLSLILVVILVLLTVLALLSHRRALKQKIWPGIPSPESEFEGLFTTHKGNFQLWLYQNDGCLWWSPCTPFTEDPPASLEVLSERCWGTMQAVEPGTDDEGPLLEPVGSEHAQDTYLVLDKWLLPRNPPSEDLPGPGGSVDIVAMDEGSEASSCSSALASKPSPEGASAASFEYTILDPSSQLLRP
DNA synthesis elicited by Epo (T lymphocytes [1]): stimulation was higher
recovery of T cells (T lymphocytes [2]; 7 days, Epo 10 IU/mL added to IL-2 100 IU/mL vs IL-2, 4 donors): significantly higher
expansion of T cells (T lymphocytes [2]; 14 days, IL-2 100 IU/mL with Epo 10 IU/mL): performed better than EpoR cells
cell numbers in culture (T lymphocytes [2]; Epo added, absence of IL-2): yielding higher cell numbers
long-term cell growth of Jurkat cells (Jurkat cells): does not adversely affect
functionality of EpoRm (pSTAT5) when expressed with CAR (STAT5 Y647; Epo 10 IU/mL, 15 minutes): maintained
durability of STAT5 phosphorylation (STAT5 Y647; Epo 10 IU/mL, time course): more durable

B2: EpoR: wild-type human erythropoietin receptor (SEQ ID NO: 2) expressed in T cells by MSCV retroviral transduction (protein)
chain: MDHLGASLWPQVGSLCLLLAGAAWAPPPNLPDPKFESKAALLAARGPEELLCFTERLEDLVCFWEEAASAGVGPGNYSFSYQLEDEPWKLCRLHQAPTARGAVRFWCSLPTADTSSFVPLELRVTAASGAPRYHRVIHINEVVLLDAPVGLVARLADESGHVVLRWLPPPETPMTSHIRYEVDVSAGNGAGSVQRVEILEGRTECVLSNLRGRTRYTFAVRARMAEPSFGGFWSAWSEPVSLLTPSDLDPLILTLSLILVVILVLLTVLALLSHRRALKQKIWPGIPSPESEFEGLFTTHKGNFQLWLYQNDGCLWWSPCTPFTEDPPASLEVLSERCWGTMQAVEPGTDDEGPLLEPVGSEHAQDTYLVLDKWLLPRNPPSEDLPGPGGSVDIVAMDEGSEASSCSSALASKPSPEGASAASFEYTILDPSSQLLRPWTLCPELPPTPPHLKYLYLVVSDSGISTDYSSGDSQGAQGGLSDGPYSNPYENSLIPAAEPLPPSYVACS
survival in culture (T lymphocytes [2]; Epo 4 IU/mL, absence of exogenous IL-2): supported their survival in culture
Epo binding (Epo): could bind Epo
long-term cell growth of Jurkat cells (Jurkat cells): does not adversely affect
